From article PMC3146519, “Highly Efficient Production of Soluble Proteins from Insoluble Inclusion Bodies by a Two-Step-Denaturing and Refolding Method”

Molecular target: T1, NRSF/REST DBD (refolded by 2DR) (UniProt Q13127 159-412)
T1 sequence: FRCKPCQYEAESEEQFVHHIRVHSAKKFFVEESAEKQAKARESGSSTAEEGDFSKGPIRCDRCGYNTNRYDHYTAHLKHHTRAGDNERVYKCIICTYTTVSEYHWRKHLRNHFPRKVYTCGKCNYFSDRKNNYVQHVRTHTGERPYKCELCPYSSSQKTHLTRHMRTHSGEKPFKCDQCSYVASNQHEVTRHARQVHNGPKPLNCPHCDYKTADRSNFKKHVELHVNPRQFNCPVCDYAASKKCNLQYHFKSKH
Experiment: EMSA; 0.1 mM ZnCl2; DBD:DNA 0:1 to 3:1, 75 pmol DNA in 20 ul; 10 mM Tris pH 7.0, 0.1 mM ZnCl2, 20 ul, 30 min at room temperature; 5% native PAGE, EtBr stain
Settings: protein: recombinant; label: none (EtBr stain); blunt

B1: NRSE/RE1 dsDNA (dsDNA)
DNA 1: TTCAGCACCACGGACAGCGCC
DNA 2: GGCGCTGTCCGTGGTGCTGAA
B1: binds.
